Source: IntAct's records for PubMed 29039417

B1: BBSome complex member BBS2 (Homo sapiens), Q9BXC9 (parent)
chain: MLLPVFTLKLRHKISPRMVAIGRYDGTHPCLAAATQTGKVFIHNPHTRNQHVSASRVFQSPLESDVSLLSINQAVSCLTAGVLNPELGYDALLVGTQTNLLAYDVYNNSDLFYREVADGANAIVLGTLGDISSPLAIIGGNCALQGFNHEGSDLFWTVTGDNVNSLALCDFDGDGKKELLVGSEDFDIRVFKEDEIVAEMTETEIVTSLCPMYGSRFGYALSNGTVGVYDKTSRYWRIKSKNHAMSIHAFDLNSDGVNELITGWSNGKVDARSDRTGEVIFKDNFSSAIAGVVEGDYRMDGHIQLICCSVDGEIRGYLPGTAEMRGNLMDTSAEQDLIRELSQKKQNLLLELRNYEENAKAELASPLNEADGHRGIIPANTRLHTTLSVSLGNETQTAHTELRISTSNDTIIRAVLIFAEGIFTGESHVVHPSIHNLSSSICIPIVPPKDVPVDLHLKAFVGYRSSTQFHVFESTRQLPRFSMYALTSLDPASEPISYVNFTIAERAQRVVVWLGQNFLLPEDTHIQNAPFQVCFTSLRNGGHLHIKIKLSGEITINTDDIDLAGDIIQSMASFFAIEDLQVEADFPVYFEELRKVLVKVDEYHSVHQKLSADMADHSNLIRSLLVGAEDARLMRDMKTMKSRYMELYDLNRDLLNGYKIRCNNHTELLGNLKAVNQAIQRAGRLRVGKPKNQVITACRDAIRSNNINTLFKIMRVGTASS
partner: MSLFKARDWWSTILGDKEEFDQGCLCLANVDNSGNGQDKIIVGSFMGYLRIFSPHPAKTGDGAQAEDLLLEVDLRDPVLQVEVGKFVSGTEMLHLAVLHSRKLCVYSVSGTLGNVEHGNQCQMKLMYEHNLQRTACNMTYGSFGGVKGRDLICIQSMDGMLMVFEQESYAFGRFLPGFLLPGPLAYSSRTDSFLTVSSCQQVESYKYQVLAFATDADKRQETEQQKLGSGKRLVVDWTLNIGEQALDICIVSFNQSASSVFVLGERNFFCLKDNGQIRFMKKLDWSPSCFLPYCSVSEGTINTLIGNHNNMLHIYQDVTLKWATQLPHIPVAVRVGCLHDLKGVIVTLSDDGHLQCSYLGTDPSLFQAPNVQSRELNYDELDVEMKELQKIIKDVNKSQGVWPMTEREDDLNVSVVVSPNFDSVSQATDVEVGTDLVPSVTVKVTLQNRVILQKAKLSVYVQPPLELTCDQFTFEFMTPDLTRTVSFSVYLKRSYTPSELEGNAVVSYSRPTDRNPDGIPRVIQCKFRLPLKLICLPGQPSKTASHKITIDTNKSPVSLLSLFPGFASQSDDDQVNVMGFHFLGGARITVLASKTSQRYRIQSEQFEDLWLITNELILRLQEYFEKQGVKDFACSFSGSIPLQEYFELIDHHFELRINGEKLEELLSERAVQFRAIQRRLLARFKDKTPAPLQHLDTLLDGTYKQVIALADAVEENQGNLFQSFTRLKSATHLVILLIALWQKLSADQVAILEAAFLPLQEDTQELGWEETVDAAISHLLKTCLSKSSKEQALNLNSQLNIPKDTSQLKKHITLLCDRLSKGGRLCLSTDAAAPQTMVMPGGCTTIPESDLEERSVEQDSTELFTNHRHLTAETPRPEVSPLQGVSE

Variants of: B1
Conditions: with pthb1_human BBS9, Q3SYG4

Variant	effect of a mutation on the interaction
Y498K	with no effect
Y498A	with no effect
Y498H	disrupting interaction strength
Y498E	with no effect
G515C	disrupting interaction strength
G515K	with no effect
G515A	with no effect
G515R	disrupting interaction strength
G515E	with no effect
V533E	disrupting interaction strength
V533K	with no effect
V533A	with no effect
S537K	with no effect
S537F	disrupting interaction strength
S537E	with no effect
S537A	with no effect
Q532A	with no effect
Q532K	with no effect
Q532E	with no effect
L544A	disrupting interaction strength
L544E	disrupting interaction strength
I496A	with no effect
I496K	with no effect
I496E	with no effect
H543K	with no effect
H543E	with no effect

Variant	effect of a mutation on the interaction
H543A	with no effect
L486K	with no effect
L486E	with no effect
L486A	with no effect
F518E	disrupting interaction strength
F518K	disrupting interaction strength
F518A	with no effect
F518L	disrupting interaction strength
P491A	with no effect
P491K	with no effect
P491E	with no effect
V510A	with no effect
V510K	with no effect
V510E	with no effect
H525E	with no effect
H525A	with no effect
H525K	with no effect
S497E	with no effect
S497A	disrupting interaction strength
S497K	with no effect
L520K	with no effect
L520E	with no effect
L520A	with no effect
R539A	with no effect
R539E	with no effect
R539K	with no effect

Variant	effect of a mutation on the interaction
V511K	with no effect
V511A	with no effect
V511E	with no effect
S493K	with no effect
S493E	with no effect
S493A	with no effect
P521K	with no effect
P521E	with no effect
P521A	with no effect
C534K	with no effect
C534E	with no effect
C534A	with no effect
E494A	with no effect
E494K	with no effect
N500K	with no effect
N500A	with no effect
N500E	with no effect
G542K	with no effect
G542E	with no effect
G542A	with no effect
T487E	with no effect
T487M	disrupting interaction strength
T487A	with no effect
T487K	with no effect
A529K	with no effect
A529E	with no effect

Variant	effect of a mutation on the interaction
N517E	with no effect
N517K	with no effect
N517A	with no effect
N517L	disrupting interaction strength
L514A	with no effect
L514E	disrupting interaction strength
L514K	disrupting interaction strength
G541A	with no effect
G541E	with no effect
G541K	with no effect
W513K	disrupting interaction strength
W513A	disrupting interaction strength
T502E	with no effect
T502K	with no effect
T502A	with no effect
Q508E	with no effect
Q508K	with no effect
Q508A	disrupting interaction strength
V512K	with no effect
V512E	with no effect
V512A	with no effect
F501E	disrupting interaction strength
F501A	with no effect
F501K	with no effect
N540A	disrupting interaction strength
N540E	with no effect

Variant	effect of a mutation on the interaction
N540K	with no effect
T536A	with no effect
T536K	with no effect
T536E	with no effect
S488A	with no effect
S488R	disrupting interaction strength
S488E	with no effect
S488K	with no effect
P495E	with no effect
P495K	with no effect
P495A	with no effect
E505A	with no effect
E505K	with no effect
L519K	with no effect
L519A	with no effect
L519E	with no effect
E522K	with no effect
E522A	with no effect
T524A	with no effect
T524K	with no effect
T524E	with no effect
N528K	with no effect
N528A	with no effect
N528E	with no effect
Q516E	with no effect
Q516A	with no effect

Variant	effect of a mutation on the interaction
Q516K	with no effect
A504K	with no effect
A504E	with no effect
I526A	with no effect
I526E	with no effect
I526K	with no effect
V499K	with no effect
V499A	with no effect
V499E	with no effect
L538A	with no effect
L538K	with no effect
L538E	with no effect
R509E	with no effect
R509A	with no effect
R509K	with no effect
D490E	with no effect
D490A	with no effect
D490K	with no effect
F531K	with no effect
F531A	with no effect
F531E	with no effect
A492E	with no effect
A492K	with no effect
D523E	with no effect
D523K	with no effect
D523A	with no effect

Variant	effect of a mutation on the interaction
P530A	with no effect
P530K	with no effect
P530E	with no effect
F535A	with no effect
F535E	disrupting interaction strength
F535K	disrupting interaction strength
I503A	with no effect
I503K	with no effect
I503E	with no effect
Q527A	with no effect
Q527E	with no effect
Q527K	with no effect
R506A	with no effect
R506E	with no effect
R506K	with no effect
A507E	with no effect
A507K	with no effect
L489A	with no effect
L489K	with no effect
L489E	with no effect
